Biological target: T1, recombinant, purified Xenopus β-catenin (Xenopus, UniProt P26233 1-781)
T1 sequence: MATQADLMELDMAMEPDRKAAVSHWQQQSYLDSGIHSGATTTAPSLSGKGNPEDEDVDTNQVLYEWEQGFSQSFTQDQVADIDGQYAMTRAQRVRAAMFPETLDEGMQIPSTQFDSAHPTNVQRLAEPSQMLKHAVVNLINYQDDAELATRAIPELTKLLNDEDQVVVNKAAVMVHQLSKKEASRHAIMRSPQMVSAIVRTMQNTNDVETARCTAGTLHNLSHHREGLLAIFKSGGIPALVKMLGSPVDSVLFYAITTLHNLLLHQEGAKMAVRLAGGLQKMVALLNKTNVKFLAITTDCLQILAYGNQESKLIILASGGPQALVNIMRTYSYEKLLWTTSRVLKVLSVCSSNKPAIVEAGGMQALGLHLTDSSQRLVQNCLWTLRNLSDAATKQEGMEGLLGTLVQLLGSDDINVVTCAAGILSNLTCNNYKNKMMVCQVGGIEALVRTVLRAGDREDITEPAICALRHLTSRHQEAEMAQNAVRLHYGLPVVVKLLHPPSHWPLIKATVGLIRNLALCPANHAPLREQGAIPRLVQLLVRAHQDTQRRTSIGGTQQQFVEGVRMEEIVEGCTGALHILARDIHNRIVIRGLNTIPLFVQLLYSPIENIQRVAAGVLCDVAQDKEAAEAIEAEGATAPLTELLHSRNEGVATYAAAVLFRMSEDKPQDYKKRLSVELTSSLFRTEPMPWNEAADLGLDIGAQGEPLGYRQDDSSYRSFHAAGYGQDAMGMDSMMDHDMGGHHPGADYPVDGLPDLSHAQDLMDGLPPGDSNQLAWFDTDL
Assay: pull-down

- binding result: binds
B1: Xenopus C-cadherin cytoplasmic domain GST fusion protein (domain or fragment)
chain: not shown
